Measured values reported in patent US20250136673A1.

Molecular target: recombinant human VEGF (R&D Systems, 293-VE-010) (human) (UniProt P15692)
Assay: Octet HTX biosensor kinetics; antibody at 10 ug/mL in 1x kinetics buffer; recombinant human VEGF 200 nM to 3.125 nM

Chain of UniProt P15692 (P15692 other isoform, or with tags, fused parts or gaps limits assumed): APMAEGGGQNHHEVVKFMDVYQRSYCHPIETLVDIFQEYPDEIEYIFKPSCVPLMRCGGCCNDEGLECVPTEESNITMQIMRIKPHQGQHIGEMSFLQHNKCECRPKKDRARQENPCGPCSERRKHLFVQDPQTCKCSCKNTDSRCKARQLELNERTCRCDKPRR

“mouse anti-human VEGF monoclonal antibody (anti-hVEGF MmAb; R&D Systems, MAB293-100)” was tested, and the Kd was 0.229 nM, the koff was 7.77e-05 s⁻¹ and the kon was 340000 M⁻¹ s⁻¹.
